One assay concerns the target YFP-ICAC84-224 (rat). Briefly: FRET or BRET; living HEK293T cells co-expressing CFP- and YFP-tagged proteins; three-filter imaging; normalized FRET signal N_FRET (Eq. 1); when FRET occurs N_FRET is greater than 0.2.
A further assay concerns the target GFP-ICAC1-83 (rat). The assay is described as follows: co-IP; 293T cells co-transfected with myc-PICK1 and GFP, GFP-ICA69 or a GFP-tagged truncation; RIPA lysate; precipitated with anti-GFP antibody on protein A-sepharose; blot with anti-myc; quantified as Co-IP myc/Input myc, normalized to the ICA69 group; 4 independent cultures.
In another assay the target is GFP-ICAC84-224 (rat). The assay is described as above.
Chain of GFP-ICAC84-224 (rat) (Q63054 whole entry): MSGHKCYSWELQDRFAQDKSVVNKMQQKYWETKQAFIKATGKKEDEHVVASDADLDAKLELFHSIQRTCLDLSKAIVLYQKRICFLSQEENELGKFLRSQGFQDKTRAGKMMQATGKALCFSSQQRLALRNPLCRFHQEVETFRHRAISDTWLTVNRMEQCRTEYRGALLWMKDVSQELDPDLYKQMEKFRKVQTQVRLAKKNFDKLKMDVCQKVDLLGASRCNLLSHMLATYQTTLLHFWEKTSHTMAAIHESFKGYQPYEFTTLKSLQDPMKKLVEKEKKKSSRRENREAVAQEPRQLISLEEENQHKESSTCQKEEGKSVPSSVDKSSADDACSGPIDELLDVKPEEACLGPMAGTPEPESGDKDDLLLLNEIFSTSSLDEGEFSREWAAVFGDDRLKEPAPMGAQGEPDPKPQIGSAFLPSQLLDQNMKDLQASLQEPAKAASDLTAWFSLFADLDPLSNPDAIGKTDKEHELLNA

Chain of YFP-ICAC84-224 (rat) (Q63054 whole entry, the tested form may be a part): as the sequence (Q63054 whole entry) above

With “CFP-PICK1 (from UniProt Q9EP80 1-416) (natural protein)”, the N FRET with YFP-ICAC84-224 (rat) was 0.86. For “myc-PICK1 (protein interacting with C-kinase 1) (from UniProt Q9EP80 1-416) (natural protein)”, the results for the percentage of precipitated protein normalized to ICA69 group with GFP-ICAC1-83 (rat) and with GFP-ICAC84-224 (rat) were 11% and 66%, respectively.
